These results are taken from patent publication US20220281965A1 (AstraZeneca / MedImmune, published 2022).

Experiment [1] has as its target T1, biotinylated human H202D GDF-15 variant (human, UniProt Q99988 197-308, biotinylated, sites not stated).
T1 construct: also called Human GDF-15 H202D
T1 chain: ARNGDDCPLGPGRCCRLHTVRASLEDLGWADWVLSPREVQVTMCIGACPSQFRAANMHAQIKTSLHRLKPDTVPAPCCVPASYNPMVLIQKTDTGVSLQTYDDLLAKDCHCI
Put plainly: HTRF binding assay, biotinylated antigen, titration of antibody. The text has this: (§1) Supernatants generated from the immunizations with human GDF-15 and purified IgGs were screened to identify IgGs with specific binding to human, cynomolgus, or mouse GDF-15. The HTRF (Homogeneous Time Resolved Fluorescence) assay is based on detection of a measurable FRET signal upon binding of a titration of test antibody to biotinylated human H202D GDF-15 variant, cynomolgus GDF-15 and mouse GDF-15. Europium cryptate (EuK) labelled Streptavidin and anti-human IgG XL665 (Cis Bio) were used as secondary detection reagents serving as energy donor and acceptor respectively. In the absence of test antibody binding, there is no detectable FRET fluorescence. When test antibody binds to GDF-15, the resulting physical proximity between the secondary reagent donor/acceptor pair results in FRET. FRET was measured ratiometrically [665 nm (acceptor)/620 nm (donor)] on an Envision plate reader, and data plotted using PRISM 6® software (Graphpad).

The target of experiment [2] is T2, mouse GDF-15 (mouse, UniProt Q9Z0J7 189-303).
T2 construct: also called mGDF-15
T2 sequence: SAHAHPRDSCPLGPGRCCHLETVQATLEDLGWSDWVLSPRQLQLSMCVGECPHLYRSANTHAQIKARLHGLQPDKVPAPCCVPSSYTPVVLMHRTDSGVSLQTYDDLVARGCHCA
The experiment is described as above.
Description: as §1

For experiment [3], the target named is T3, biotinylated cynomolgus GDF-15 (cynomolgus, UniProt G7PWZ3 197-308, biotinylated, sites not stated).
T3 construct: also called Cyno GDF-15
T3 sequence: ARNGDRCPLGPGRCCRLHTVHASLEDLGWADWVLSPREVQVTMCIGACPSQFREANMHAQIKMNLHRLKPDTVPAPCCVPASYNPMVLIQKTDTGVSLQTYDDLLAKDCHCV
The experiment is described as above.
Description: as §1

Experiment [4] has as its target T4, mature human GDF-15 (human, UniProt Q99988 197-308).
T4 construct: Homodimer; also called hGDF-15; recombinant hu-GDF15
T4 sequence: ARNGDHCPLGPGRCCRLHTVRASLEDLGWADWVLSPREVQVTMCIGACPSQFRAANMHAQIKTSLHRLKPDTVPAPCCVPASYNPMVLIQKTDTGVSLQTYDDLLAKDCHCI
Put plainly: HTRF epitope competition; competitor DyLight 650 labelled Antibody A; Europium labelled human GDF-15. From the text:
Antibodies from the immunizations with human GDF-15, in the form of crude supernatants from the immunization or in the form of purified IgGs, were chosen on the basis that they bind and compete with an epitope recognized by a control anti-GDF-15 antibody “Antibody A”. A biochemical epitope competition format was applied using an HTRF epitope competition assay that measured the binding of DyLight 650 labelled Antibody A to Europium labelled human GDF-15 (Prospec). In the absence of Antibody A binding, there is no detectable FRET fluorescence. When Antibody A binds to GDF-15, the resulting physical proximity between the secondary reagent donor/acceptor pair results in FRET. Competition with an antibody that recognizes the same or similar epitope will result in a dose dependent reduction of the FRET signal. FRET was measured ratiometrically [665 nm (acceptor)/620 nm (donor)] on an Envision plate reader, and IC₅₀ values were determined by curve fitting the data to a four parameter logistic equation using PRISM 6® software (Graphpad).

Experiment [5] concerns the target T5, human TGFβ1 (R&D Systems 240-B) (human, UniProt P01137 279-390).
T5 construct: Bought protein, adsorbed on the ELISA plate
Put plainly: antigen presentation ELISA: human TGFβ1 adsorbed on a Nunc Maxisorp plate, titration of IgG, anti-human IgG-HRP, TMB, absorbance at 450 nm. Here is the method: (§2) Purified humanized IgGs were screened for binding to human GDF-15 over two further members of the same family, TGFβ1 (R&D Systems 240-B) and BMP7 (R&D Systems 354-BP/CF), using a standard antigen presentation ELISA. Human GDF-15, human TGFβ1 or human BMP7 were adsorbed onto a Nunc Maxisorp™ plate. After removal of excess unbound antigen, a titration of test IgG was added to the plate. After a 1-hour incubation, the unbound IgG was removed. The extent of IgG binding was determined by addition of an anti-human IgG antibody conjugated to the horseradish peroxidase (HRP) enzyme and measuring the optical absorbance at 450 nm of the product of its reaction with the substrate TMB.

The target in experiment [6] is T6, human BMP7 (R&D Systems 354-BP/CF) (human, UniProt P18075 293-431).
T6 construct: Bought protein, adsorbed on the ELISA plate
T6 sequence (looked up): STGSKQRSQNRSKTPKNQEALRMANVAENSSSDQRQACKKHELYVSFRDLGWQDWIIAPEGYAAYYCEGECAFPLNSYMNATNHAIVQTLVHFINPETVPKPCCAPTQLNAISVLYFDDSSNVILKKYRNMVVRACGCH
The experiment can be described thus: antigen presentation ELISA: human BMP7 adsorbed on a Nunc Maxisorp plate, titration of IgG, anti-human IgG-HRP, TMB, absorbance at 450 nm. Here is the method:
as §2

T5 sequence (P01137 279-390 limits assumed): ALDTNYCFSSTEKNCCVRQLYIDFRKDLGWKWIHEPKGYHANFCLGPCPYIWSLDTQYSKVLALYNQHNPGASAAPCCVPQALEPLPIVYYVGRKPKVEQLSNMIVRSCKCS

B1: AB1170148 (antibody, V domains shown)
VH: QVQLQQPGAELVRPGTSVKLSCKASGYTFTSYWMHWVKQRPRQGLEWIGLIDPSDNYTNYNQNFKGKATLTVDTSSSTAYMQLGSLTSEDSAVYYCASYDGYSTPSAMDYWGQGTSVTVSS
VL: QIVLSQSPAILSASPGEKVTMTCRASSSVNYMHWYQQKPGSSPKPWIYATSNLASGVPARFSGSGSGTSYSLIISRVEAEDAAAYYCQQWSSYPPTFGGGTKLEIK
As for B1, the binding result in experiment [1], in experiment [2] and in experiment [3] was “binds” in each case. For the same molecule, the IC50 in experiment [4] amounted to 68.3 nM.

B2: AB1170242 (antibody, IgG1, V domains shown)
VH: QVQLQESGPGLLKPSQTLSLTCTVSGFSLSTYGMGVGWIRQPAGKGLEWLANIWWNDDKYYNSALKSRLTISKDTSKNQVSLKLSSVTAADTAVYYCAQEVYGWFAYWGQGTLVTVSS
VL: DIQMTQSPSTLSASVGDRVTITCKASQNVGTNVAWYQQKPGQPPKALIYSASYRYSGVPDRFSGSGSGTDFTLTISSLQAEDVAVYYCQQYNSYPLTFGQGTKLEIK
notes: Humanized IgG1 TM; not shown: human immunoglobulin kappa light chain constant domain
As for B2, the binding result in experiment [5] and in experiment [6] was “no binding (tested: 5 µg/mL)” each time. In experiment [4], this molecule showed an IC50 of 0.288 nM.

B3: AB1170249 (antibody, IgG1, V domains shown)
VH: QVQLQESGPGLLKPSQTLSLTCTVSGFSLSTYGMGVGWIRQPLGKGLEWLANIWWNDDKYYNSALKSRLTISKDTSKNQVSLKLSSVTAADTAVYYCAQMAYSWFAYWGQGTLVTVSS
VL: DIQMTQSPSFLSASVGDRVTITCKASQNMDTNVAWYQQKPGQPPKALIYSASYRYSGVPDRFSGSGSGTDFTLTISSLQAEDVAVYYCQQYNSYPFTFGQGTKLEIK
notes: as for B2
As to B3, the binding result in experiment [5] and in experiment [6] was “no binding (tested: 5 µg/mL)” throughout. In experiment [4], this molecule displayed an IC50 of 0.406 nM.

B4: AB1170241 (antibody, IgG1, V domains shown)
VH: QVQLVQSGSELKKPGASVKVSCKASGYTFTDYNMDWIRQSPGKGLEWIGDINPNQGGTFYNQKFKDRATLTVDKSTSTAYMELRSLRSDDTAVYYCAREEKLYFGLMDYWGQGTTVTVSS
VL: DIQMTQSPSSLSASVGDRVTITCRASENIYSYLAWYQQKPGKAPKLLVYNAKTLAEGVPSRFSGSGSGIDFTLTISSLQPEDFATYYCQHQYGSPPTFGQGTKLEIK
notes: Humanized IgG1 TM; Made from AB1170243 by changing NNG to NQG in heavy chain CDR2; not shown: human immunoglobulin kappa light chain constant domain
Consider B4, for which the binding result in experiment [5] and in experiment [6] was “no binding (tested: 5 µg/mL)” throughout. The molecule also came in with an IC50 in experiment [4] of 0.212 nM.

B5: AB1170243 (antibody, IgG1, V domains shown)
VH: QVQLVQSGSELKKPGASVKVSCKASGYTFTDYNMDWIRQSPGKGLEWIGDINPNNGGTFYNQKFKDRATLTVDKSTSTAYMELRSLRSDDTAVYYCAREEKLYFGLMDYWGQGTTVTVSS
VL: DIQMTQSPSSLSASVGDRVTITCRASENIYSYLAWYQQKPGKAPKLLVYNAKTLAEGVPSRFSGSGSGIDFTLTISSLQPEDFATYYCQHQYGSPPTFGQGTKLEIK
notes: Humanized IgG1 TM; also called human anti-human GDF-15 IgG; not shown: human immunoglobulin kappa light chain constant domain
As to B5, the binding result in experiment [5] and in experiment [6] was “no binding (tested: 5 µg/mL)” throughout. This molecule also yielded an IC50 in experiment [4] of 0.155 nM.

B6: AB1170244 (antibody, IgG1, V domains shown)
VH: EVQLVESGGGLVKPGGSLRLSCAASGFTFSSYAMSWVRQAPGKGLEWVAYISSGGDNIYYADTVKGRFTISRDNSKNTLYLQMNSLKTEDTAVYYCTRALVENAYFDYWGQGTTVTVSS
VL: DSVLTQSPDSLAVSLGERATINCRASKSVSTSTYSYMHWYQQKPGQPPKLLIKYASYLESGVPDRFSGSGSGTDFTLKISRVEAEDVGVYYCQHSREFPWTFGGGTKVEIK
notes: as for B2
On to B6, for which the binding result in experiment [5] and in experiment [6] was “no binding (tested: 5 µg/mL)” each time. This molecule came in with an IC50 in experiment [4] of 1.17 nM.
